According to article PMC5800842:

B1: HA-RSPO3 R67A/Q72A-Tev-Fc-Avi-1D4 (Fc fusion)
chain: QNASRGRRQRRMHPNVSQGCQGGCATCSDYNGCLSCKPRLFFALEAIGMKAIGVCLSSCPSGYYGTRYPDINKCTKCKADCDTCFNKNFCTKCKSGFYLHLGKCLDNCPEGLEANNHTMECVSIVHCEVSEWNPWSPCTKKGKTCGFKRGTETRVREIIQHPSAKGNLCPPTNETRKCTVQRKKCQKGERGKKGRERKRKKPNKGESKEAIPDSKSLESSKEIPEQRENKQQQKKRKVQDKQKSVSVSTVH
B2: HA-RSPO3 F106E/F110E-Tev-Fc-Avi-1D4 (Fc fusion)
chain: QNASRGRRQRRMHPNVSQGCQGGCATCSDYNGCLSCKPRLFFALERIGMKQIGVCLSSCPSGYYGTRYPDINKCTKCKADCDTCENKNECTKCKSGFYLHLGKCLDNCPEGLEANNHTMECVSIVHCEVSEWNPWSPCTKKGKTCGFKRGTETRVREIIQHPSAKGNLCPPTNETRKCTVQRKKCQKGERGKKGRERKRKKPNKGESKEAIPDSKSLESSKEIPEQRENKQQQKKRKVQDKQKSVSVSTVH

Assays:
[1] = target: ZNRF3/RNF43
[2] = target: LGR4 (human (endogenous in HAP1)) (UniProt Q9BXB1)

EC50 of potentiation of WNT reporter fluorescence in WT HAP1-7TGP cells with 1.43% WNT3A CM, fold over wild-type RSPO3 [1] [fold]	EC50 of potentiation of WNT reporter fluorescence in WT HAP1-7TGP cells with 1.43% WNT3A CM, fold over wild-type RSPO3 [2] [fold]	efficacy (maximum WNT reporter activity) in WT HAP1-7TGP cells with 1.43% WNT3A CM, reduction against wild-type RSPO3 [2] [% reduction]	Binder
21			B1
	2.9	48	B2
